Laboratory results reported in paper PMC9226200.
“And” between values parts separate entries of the source, which are not always exact repeats. Equal values may be shown once.

Biological target: PKM2 (mouse (endogenous in splenic B cells of C57BL/6J mice)) (UniProt P52480)
Assay: cross-linking; lysates of purified CD19+ splenic B cells from C57BL/6J mice cultured with or without Hcy (100 μmol/L) for 24 h, cross-linked with glutaraldehyde; Western blot for PKM2 oligomer states

Sequence of PKM2, P52480 1-531 (enzyme; other documents disagree on this pair) (P52480 whole entry): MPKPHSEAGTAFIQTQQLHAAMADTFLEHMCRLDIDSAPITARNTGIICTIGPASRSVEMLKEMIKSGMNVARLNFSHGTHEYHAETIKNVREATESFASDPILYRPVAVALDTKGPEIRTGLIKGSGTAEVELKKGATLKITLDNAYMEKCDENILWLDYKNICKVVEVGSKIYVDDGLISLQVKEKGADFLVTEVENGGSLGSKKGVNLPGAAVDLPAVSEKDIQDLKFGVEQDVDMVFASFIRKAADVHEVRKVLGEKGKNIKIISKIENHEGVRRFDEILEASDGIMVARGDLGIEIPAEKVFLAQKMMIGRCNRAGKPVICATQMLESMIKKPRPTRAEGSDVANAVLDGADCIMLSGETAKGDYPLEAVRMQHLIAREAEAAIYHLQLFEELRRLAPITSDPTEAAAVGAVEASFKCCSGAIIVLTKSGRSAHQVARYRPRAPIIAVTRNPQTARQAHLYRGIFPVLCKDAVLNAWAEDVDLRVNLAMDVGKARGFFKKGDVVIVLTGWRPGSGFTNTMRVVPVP

- stoichiometry N: 4 and 2
Substance: PKM2, P52480 1-531 (enzyme; other documents disagree on this pair)
